Experimental data published in patent publication US20070031956.

Test system: S6 peptide (RRRLSSLRA)

Sequence of Full-length human Pim-1 kinase (residues M1-K313) with N-terminal HexaHis tag and thrombin cleavage site (chain, as listed by the source): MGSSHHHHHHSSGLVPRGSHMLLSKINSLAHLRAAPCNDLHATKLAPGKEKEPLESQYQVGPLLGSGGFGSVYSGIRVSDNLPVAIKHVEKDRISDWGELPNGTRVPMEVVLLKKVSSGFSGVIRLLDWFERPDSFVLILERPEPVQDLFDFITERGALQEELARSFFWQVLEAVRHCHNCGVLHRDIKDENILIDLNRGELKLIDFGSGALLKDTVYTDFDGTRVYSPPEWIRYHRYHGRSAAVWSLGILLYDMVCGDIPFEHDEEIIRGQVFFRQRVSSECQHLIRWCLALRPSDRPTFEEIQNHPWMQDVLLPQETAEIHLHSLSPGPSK

Full-length human Pim-1 kinase (residues M1-K313) with N-terminal HexaHis tag and thrombin cleavage site
peptide Km (coupled-enzyme kinase assay): peptide Km=51±2 µM
